In this assay the target is T1, Akt peptide (synthetic peptide; letters match human …).
T1 construct: Akt peptide around 473-Ser, not phosphorylated; also called non-phosphorylated antigen; non-phosphorylated peptide; source: synthetic peptide (SCRUM Inc.)
T1 chain: RPHFPQFSYSAS
The assay can be described thus: ITC; iTC200; 5 μM scFv in the cell, 50 μM peptide in the syringe; samples dialyzed against PBS; triplicate. The note with it: both partners purified.

B1: rabbit antibody A4 scFv (wild type) (scFv, V domains shown)
VH: QEQLMESGGRLVTPGTPLTLTCTASGSDISTYSISWVRQAPGKGLEWIGHIGSSGTQYYASWAKGRFAISRASTTVDLRITGPTTEDTATYFCARRGVGYNLYYNMWGPGTLVTVSL
VL: AIDMTQTPSPVSAAVGGTVTINCQASQSVYNSKNLAWYQQKPGQPPKLLIYDSSTLASGVSSRFRGSGSGTQFTLTISGVQSDDAATYYCQGEFSCSSGDCAGFGGGTEVVVE
notes: VH of rabbit antibody A4; they are in PDB 8JOW (A4 scFv); GS linker of the scFv; PDB 8JOW may hold them; VL (kappa) of rabbit antibody A4; they are in PDB 8JOW; the deposited construct should already hold Ser at L80 (Chothia); Antibody numbering is Chothia; also called A4 WT; source: E. coli BL21(DE3), purified (Ni-NTA, SEC)
As to B1, the affinity, expressed as Kd, was 1120 nM.

One may read the Kd as a measure of binding affinity in units of concentration. Read a high Kd as a looser complex.

Values taken from article PMC11681868, “Unveiling the structural mechanisms behind high affinity and selectivity in phosphorylated epitope-specific rabbit antibodies” (The Journal of Biological Chemistry, 2024).
